Measurements as given in PMC7948472.
Read-outs that look alike come from different tables or passages of the source. Where no end group is shown, it is not given here. Me3 = trimethyl-lysine

How the values were obtained:
Fab F9 (rabbit) = assay: SPR; Biacore T200; each Fab immobilised on a CM5 chip by amine coupling; peptides injected at increasing concentrations; running buffer PBS with 0.005% Tween 20; global fitting of the curves, or steady-state analysis where kinetic parameters could not be determined (fast dissociation, low affinity)
Fab C9 (rabbit) [1] = assay: as above
Fab E6 (rabbit) = assay: as above
Fab E10 (rabbit) [2] = assay: as above
Fab D6 (rabbit) [3] = assay: as above
Fab E10 (rabbit) [4] = assay: as above; remark: listed apart in the source
F9 Fab (rabbit) = assay: SPR; Biacore T200; each Fab immobilised on a CM5 chip by amine coupling; increasing concentrations of free peptide injected; running buffer PBS with 0.005% Tween 20; global fit, steady-state analysis where dissociation was fast
C9 Fab (rabbit) = assay: as above
D6 Fab (rabbit) = assay: as above
E6 Fab (rabbit) = assay: as above
Fab C9 (rabbit) [5] = assay: SPR; Biacore T200; each Fab immobilised on a CM5 chip by amine coupling; peptides injected at increasing concentrations; running buffer PBS with 0.005% Tween 20; global fitting of the curves, or steady-state analysis where kinetic parameters could not be determined (fast dissociation, low affinity); remark: listed apart in the source
Fab D6 (rabbit) [6] = assay: as above; remark: listed apart in the source
F9, C9, E6, and D6 = assay: SPR; Biacore T200; each Fab immobilised on a CM5 chip by amine coupling; increasing concentrations of free peptide injected; running buffer PBS with 0.005% Tween 20; global fit, steady-state analysis where dissociation was fast

Fab D6 (rabbit), sequence (heavy, as listed by the source, chain 1 of 2): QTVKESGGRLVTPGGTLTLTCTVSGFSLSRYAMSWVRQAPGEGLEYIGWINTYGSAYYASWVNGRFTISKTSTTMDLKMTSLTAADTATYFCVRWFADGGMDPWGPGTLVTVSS
Fab D6 (rabbit), sequence (light, as listed by the source, chain 2 of 2): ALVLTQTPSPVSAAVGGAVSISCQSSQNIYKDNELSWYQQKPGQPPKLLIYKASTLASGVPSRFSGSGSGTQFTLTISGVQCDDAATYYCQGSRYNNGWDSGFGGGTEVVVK
Fab C9 (rabbit), sequence (heavy, as listed by the source, chain 1 of 2): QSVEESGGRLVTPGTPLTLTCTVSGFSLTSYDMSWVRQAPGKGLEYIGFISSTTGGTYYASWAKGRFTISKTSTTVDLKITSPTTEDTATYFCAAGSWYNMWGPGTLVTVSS
Fab C9 (rabbit), sequence (light, as listed by the source, chain 2 of 2): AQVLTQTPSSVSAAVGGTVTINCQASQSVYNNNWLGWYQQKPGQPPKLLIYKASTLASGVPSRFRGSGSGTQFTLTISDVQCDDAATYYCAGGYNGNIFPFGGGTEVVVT
Fab F9 (rabbit), sequence (heavy, as listed by the source, chain 1 of 2): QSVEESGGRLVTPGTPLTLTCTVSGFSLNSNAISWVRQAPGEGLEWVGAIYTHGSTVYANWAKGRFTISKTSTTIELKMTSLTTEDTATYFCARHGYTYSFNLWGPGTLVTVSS
Fab F9 (rabbit), sequence (light, as listed by the source, chain 2 of 2): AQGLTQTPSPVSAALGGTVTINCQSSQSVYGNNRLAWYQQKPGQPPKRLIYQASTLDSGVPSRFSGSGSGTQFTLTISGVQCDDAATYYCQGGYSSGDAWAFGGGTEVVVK
E6 Fab (rabbit), sequence (heavy, as listed by the source, chain 1 of 2): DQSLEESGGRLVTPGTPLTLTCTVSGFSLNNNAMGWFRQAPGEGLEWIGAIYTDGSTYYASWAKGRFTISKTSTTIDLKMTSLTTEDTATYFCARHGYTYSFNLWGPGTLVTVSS
E6 Fab (rabbit), sequence (light, as listed by the source, chain 2 of 2): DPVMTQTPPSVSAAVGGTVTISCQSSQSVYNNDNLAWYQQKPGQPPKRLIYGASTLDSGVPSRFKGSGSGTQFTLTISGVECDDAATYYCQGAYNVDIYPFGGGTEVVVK

Row | Binder | koff (Fab F9 (rabbit)) [s⁻¹] | kon (Fab F9 (rabbit)) [M⁻¹ s⁻¹] | koff (Fab C9 (rabbit) [1]) [s⁻¹] | kon (Fab C9 (rabbit) [1]) [M⁻¹ s⁻¹] | koff (Fab E6 (rabbit)) [s⁻¹] | kon (Fab E6 (rabbit)) [M⁻¹ s⁻¹] | Kd (Fab E10 (rabbit) [2]) [µM] | koff (Fab D6 (rabbit) [3]) [s⁻¹] | kon (Fab D6 (rabbit) [3]) [M⁻¹ s⁻¹] | Kd (Fab E10 (rabbit) [4]) [µM] | Kd (F9 Fab (rabbit)) [µM] | Kd (C9 Fab (rabbit)) [µM] | Kd (D6 Fab (rabbit)) [µM] | Kd (E6 Fab (rabbit)) [µM] | fold difference in association rate constant against F9 (E6 Fab (rabbit)) [fold] | Kd (Fab C9 (rabbit) [1]) [µM] | Kd (Fab D6 (rabbit) [3]) [µM] | Kd (Fab C9 (rabbit) [5]) [µM] | Kd (Fab D6 (rabbit) [6]) [µM] | Kd (F9, C9, E6, and D6) [µM]
1 | NPIFEKFGK(Me3)GGTYP [Methylated MAP3K2 peptide, …(me3)GGTYP] | 0.098 | 330000 | 0.006 | 480000 | 0.0029 | 3.4e+06 | 37 | 0.096 | 1.9e+06 | 39 | 0.3 | 0.014 | 0.054 | 0.0009 | > 100 | – | – | – | – | –
2 | NPIFEKFGKGGTYP [MAP3K2 peptide, …] | – | – | – | – | – | – | 40 | – | – | 36 | – | – | – | – | – | 440 | 140 | 690 | 180 | 0.3
3 | NPIFEKFGK(Me3)GGTYP-NH2 [Methylated MAP3K2 peptide in which the C terminus was amidated] | – | – | – | – | – | – | – | – | – | – | – | – | – | – | – | 0.0111 | 0.0591 | – | – | –
